{
  "source": "the DeepSol protein solubility set",
  "experiment": "soluble on expression in E. coli; label from the status in PepcDB or PDB records",
  "data": [
    {"sequence": "MCLVALAWKTHPRWRLLLAGNRDEFHERPTAPLAQWAAPAERVLAGRDLRSGGSWVGLGLDGRAAVVTNVRDPLATASGRSRGHLIADYLSGSADAATYARELAAAGQEFPPFNLLLCDAERCEHLSNHPALARALAPGIHGMSNGPLDAHWPKTTALTHALAAWCDSGSDDLQPLWTALANPATAADADLPHTGVDRATERLLSAAFIRGASYGTRASTIVAVDHHGHGFIHERRFGPDGVFQGETRLDVAGMHLEHHHHHH", "values": [
      {"measurement": "soluble on expression in E. coli", "result": "not soluble"}
    ]},
    {"sequence": "MSSNECFKCGRSGHWARECPTGGGRGRGMRSRGRGFQFVSSSLPDICYRCGESGHLAKDCDLQEDACYNCGRGGHIAKDCKEPKREREQCCYNCGKPGHLARDCDHADEQKCYSCGEFGHIQKDCTKVKCYRCGETGHVAINCSKTSEVNCYRCGESGHLARECTIEATA", "values": [
      {"measurement": "soluble on expression in E. coli", "result": "not soluble"}
    ]},
    {"sequence": "MNTDTFMCSSDEKQTRSPLSLYSEYQRMEIEFRAPHIMPTSHWHGQVEVNVPFDGDVEYLINNEKVNINQGHITLFWACTPHQLTDTGTCQSMAIFNLPMHLFLSWPLDKDLINHVTHGMVIKSLATQQLSPFEVRRWQQELNSPNEQIRQLAIDEIGLMLKRFSLSGWEPILVNKTSRTHKNSVSRHAQFYVSQMLGFIAENYDQALTINDVAEHVKLNANYAMGIFQRVMQLTMKQYITAMRINHVRALLSDTDKSILDIALTAGFRSSSRFYSTFGKYVGMSPQQYRKLSQQRRQTFPG", "values": [
      {"measurement": "soluble on expression in E. coli", "result": "soluble"}
    ]},
    {"sequence": "GHVLLLRPVRSEDVEPLQGVFALMGPQEIRERFAPSATGSSERFQQLTNPNAKREIVLVAAEQLPPGEAMIAALARASIVPNSRHAEYIILVSSFVSGQGLGRQLLRKLVKWARGKYLDHLYGDILERNRPMLELAESLGFQRESHPESPDLVRMTLKL", "values": [
      {"measurement": "soluble on expression in E. coli", "result": "not soluble"}
    ]},
    {"sequence": "MGHHHHHHMSEFYKLAPVDKKGQPFPFDQLKGKVVLIVNVASKCGFTPQYKELEALYKRYKDEGFTIIGFPCNQFGHQEPGSDEEIAQFCQLNYGVTFPIMKKIDVNGGNEDPVYKFLKSQKSGMLGLRGIKWNFEKFLVDKKGKVYERYSSLTKPSSLSETIEELLKEVE", "values": [
      {"measurement": "soluble on expression in E. coli", "result": "soluble"}
    ]},
    {"sequence": "MPNKRNVELLATLKENLERAQGSFFLVNYQGLPAKETHALRQALKQNGARLFVAKNTLIRLALKELGLPELDGLQGPSAVVFYEDPVAAAKTLVQFAKSNPKGIPQVKSGLLQGQILTAKDVEALAELPTMDELRAELVGVLQAPMAELVGVLGGVARELVGILEAYAEKKAA", "values": [
      {"measurement": "soluble on expression in E. coli", "result": "soluble"}
    ]},
    {"sequence": "ATQFTASILSLYNSEQMLQKTDPMSVISSAMVAATLDLPIDKNLGYAWIVPYGGKAQFQLGYKGYIQLALRTGQYKSINCIPIHEGELQKWNPLTEEIEIDFEKRESDAVIGYAAYFELINGFRKTVYWTKAQVEKHKKKFSKSDFGWKNDWDAMALKTVLKAVLSKWGILSVEMQKAVIEEDETRERIDITNEADSSEIIDSE", "values": [
      {"measurement": "soluble on expression in E. coli", "result": "not soluble"}
    ]},
    {"sequence": "MSLIVTAYTQEGIVIGADSCITTNFTQEGKELYKHSHCGNKLFLLNKKIGISTCGDAIINGILLSSLIDQYIWSKKEENITLLQVEIDLKNIVNNQAKGKEYYVIFHICGYENGKRYVSKFDNNDKESHIKDVSERDGCIYDGQVDIVDLFSQDVAYRGTDGLYYDINIERCRYNELSLQETIEYVYFLISTTIQHMRFTYKKDNVGFPIDILVIMPNESLWLQKKELHIPGNY", "values": [
      {"measurement": "soluble on expression in E. coli", "result": "not soluble"}
    ]},
    {"sequence": "GHHHHHHAIAENLYFQSKFLDVECLSELQRKLNDLELTDYRVRCQLEAYSCKPAGFDKKLSKSLEQKLVEQLEASPRVLEGSPVGSLEDQSARKTLINLICTLNAAHQDYDFSSLQLSRLKRVQDVRSLQQHVDSLFELFYRQLGLEFRQFLWENIGQIIRPEECEVYSYLPDYESDPYSASGALWSFCYFFYHKNMKKILFFSCTLSTRLAEDSESTESVDEEDFGKESSGLETPFAMFETVI", "values": [
      {"measurement": "soluble on expression in E. coli", "result": "not soluble"}
    ]},
    {"sequence": "MAHHHHHHMATTSSPAASETAVRTVWFDAIDATAAMISTDPLQPAAEYTADSYLPPLSLAGDQADFFAQLRELDRGFIEAAPSLFLPQMTLEEACHAKPSFYQTFLGEREITETTFQPLLLKQRDEAEQEADGSAMNGRHGARRRRQEAPVLPRGTAPLYGGFLGQEAMSPSTAVQRKPDFMPIILVPSAATAPLQLMNIKQFLEHGAYVDPATLYVDRETGVVNIRDSKPRSVIVKPGSFHDPHKYHVAFRQFRVVDDQDEVDDWSHVCGCIVEGKLWQLKGWYPHEQPQSRDPSRLFSRIRAFLAYFEEDKVPPQCREWNVQSLALTRNLLKDQVHIALASKFWEQLYTFLDEHPMFSRYTIPLTDERL", "values": [
      {"measurement": "soluble on expression in E. coli", "result": "soluble"}
    ]},
    {"sequence": "MVKSIENVKLTKGLFYNSQKKGNDVILALDIDRLLAPYYEAANLPPKKRSYGGWEEREIRGHSLGHWLSAAAAMYETTGDKALLERIDRAVQELATIQDDVGYVGGVKRAHFDEMFSGEFQVGHFNIAGTWVPWYNLHKLFAGLIDVHQLTGHSLALTVVTKLADWAKKGTDQLTDDQFQRMLICEHGGMNEAMADLYTLTGHKDYLQLAIRFCHWAVLEPLANGIDELEGKHANTQIPKVIGAAKLFEITGDDTYRAIAEFFWRQVTNDRSYIIGGNSNSEHFGPANKETLGVETAETCNTYNMLKLTEHLFRWNRSSQLMDYYEKALYNHILASQDPDSGMKTYFVSLQPGHFKVYSSLEESFWCCFGTGLENPARYTRTIYDRDDRHIYVNLFMASEIHLKDLQVQIRQETNFPETDRTKLTFVKADGVSIKLHIRVPEWVAGPVTARINGKETFSESGADYLTIEREWQKGDEIEVHLPMELRIYEAKDDSHKVGIMYGPIVLAGTFGKDHFPETDIVPNHLSLHNHPLIDVPTLVATKKTPDQWIHPVEGRSLTFRTAAIGQPGNVQITLIPFYALHHERYTVYWNLMSEVEYEAFKARKEVESDQLQARTVDAVQPGEQQPEVEHQLKANHSETGYLNIMQKRWRDSRGEDGFFSYVMKVKPNQQMSLFVTYYGGDHGLFVDGKWCDRSFRILIDDEVIKEEQLLGKNPGETLDVYYPIPLALTEGKEEVVVTFASKEGTVAGGVYGVRMLCNLEHHHHHH", "values": [
      {"measurement": "soluble on expression in E. coli", "result": "soluble"}
    ]},
    {"sequence": "MFERVREDIQSVFHRDPAARNALEVLTCYPGLHAVWLHRLAHGLWTSGWKWLARLVSNFGRWMTGIEIHPGARIGRRFFIDHGMGIVIGETAEIGDDVTLYQGVTLGGTTWNKGKRHPTLGNNVVVGAGAKVLGPFTVGEGAKVGSNAVVTKEVPPGATVVGIPGRIIMREDSEQQAKRQAMAEKLGFDAYGVSQDMPDPVARAIGQLLDHLQAVDGRLEGMCQALTALGSDYCAKDLPVLREEDFAGVKDEDGNPAA", "values": [
      {"measurement": "soluble on expression in E. coli", "result": "not soluble"}
    ]},
    {"sequence": "MVKGRIHSVESCGTVDGPGIRYVIFTQGCLLRCQYCHNADTWEIGKGKEITVEEVMQDVTCYLPFIEASGGGITVSGGEPLLQLDFLIELFKKCKAAGIHTTIDSSGGCYSEEPEFRNKLDILMDYTDLVLLDLKHIDSKKHRKLTGKPNEHILQFARYLSDKNKPIWVRHVLVPGVTDNEEDLQKLSSFIQSLSNVQKVEVLPYHKLGVYKWEALGHKYPLANVEPPTEKNVEHAKYILQAV", "values": [
      {"measurement": "soluble on expression in E. coli", "result": "not soluble"}
    ]},
    {"sequence": "MNLFFEKTGATNVAEFSVSEIAGALKRVVEEKFGYVRVRGEISGYRGAHASGHAYFALKDDKARLEAVIWRGIMEKLKFPPEEGMEVIAVGKLTTYPGSSKYQIVIEALEPTGVGALMTLLENRKKKFAEEGLFDEEKKKPLPYMPKIIGVVTSPTGAVIRDIIHRISDRFPLHILVWPVRVQGETSGREVAAAVKGFNVLPLEGLIPKPDLLIVARGGGSLEDLWGFNDEVVVRAVYESSLPVISAVGHETDWTLIDYVADWRAPTPTAAAEKAVPVKIDLEVYVVSLGARLRTGLARYFDFHQQKLRAIIRALPTADQLFALPRRGFDEISSRLERALCVSCDKKRLYFHTLAIRFTPRLLNTEKAQHSAKEYTARLHRAFVHIVEKQRAQLEIAFRLLKSTSYQNILERGFVLALGQNNKPIKRLAQIPEKEQINLRFFDGEISVITQESFFNRSSKSKRIKSKQDDQGTLF", "values": [
      {"measurement": "soluble on expression in E. coli", "result": "not soluble"}
    ]},
    {"sequence": "MTTDSLSQIDTDQDEYGEEIEMASNSLGNLPDVVLQHLAPFLQWSTCRALSEVNLRFRSHFKQHLKEGQALSIKGQVSVGVGDRVNDCQNVSFLSEFYTIRVEMDDNMVVDWTLKLQSGVRTVVHRHYDGNTQTTTTKSVHLSSRDYLEKVLKWILARYQFKKIHLGVQGLAPLFSSYKGEIENVGISDEIEYLKLAEKFRPKHLTLFKPAQNTYNKGFFDLKKFPQLEELRMYGVPLDLDQLIESNISEVAADTIDKDIKLKHVRKIINNWKNGIINYKSIMISPSCSQFGIYCPHNQWSELTDHLVEANALYDNVVNIKEKIGSARYSPRSFEFEVWEADRY", "values": [
      {"measurement": "soluble on expression in E. coli", "result": "not soluble"}
    ]}
  ]
}
